Legend:
[1] = Food intake measured three consecutive days per week; assay type: in vivo; parameters: key: ns: not significant; *: p < 0.05; **: p < 0.005; ***: p < 0.001; ****: p < 0.0001; details: male C57Bl/6 DIO mice, 2-way ANOVA with Dunnett's analysis
Experimental: (§1) Male C57Bl/6 DIO mice, 19-20 weeks old (13-14 weeks on high fat diet) at beginning of dosing, were placed into the following treatment groups: Group A—Vehicle, in which the animals were administered vehicle weekly; Group B—Dulaglutide, in which the animals were administered 0.1 mg/kg (2 nmol/kg) of dulaglutide twice per week; Group C—GIPR Ab, in which the animals were administered 5 mg/kg (33 nmol/kg) of antibody 2.63.1 (having a light and heavy chain sequence of SEQ ID NOs: 105 and 106, respectively) weekly and vehicle weekly (the latter being on the alternate dulaglutide dosing day); Group D—GDF15, in which the animals were administered 0.125 mg/kg (1 nmol/kg) of FcΔ10(−)-(G4S)4-GDF15 (SEQ ID NO: 39) (along with its heterodimerization partner, FcΔ10(+,K) (SEQ ID NO: 32)) weekly and vehicle weekly (the latter on the alternate dulaglutide dosing day); Group E—GDF15+Dulaglutide, in which the animals were administered 0.125 mg/kg (1 nmol/kg) of FcΔ10(−)-(G4S)4-GDF15) (along with its heterodimerization partner, FcΔ10(+,K)) weekly and 0.1 mg/kg (2 nmol/kg) of dulaglutide twice per week; Group F—GDF15+GIPR Ab, in which the animals were administered 0.125 mg/kg (1 nmol/kg) of FcΔ10(−)-(G4S)4-GDF15 (along with its heterodimerization partner, FcΔ10(+,K)) weekly and 5 mg/kg (33 nmol/kg) of antibody 2.63.1 weekly. The animals were dosed for 5 weeks with through subcutaneous injection.

[2] = Body weight change in DIO mice treated for 5 weeks; assay type: in vivo; parameters: key to Significance of Body Weight Change: ns: not significant; *: p < 0.05; **: p < 0.005; ***: p < 0.001; ****: p < 0.0001; details: subcutaneous; for Significance of Body Weight Change: male C57Bl/6 DIO mice, 2-way ANOVA with Dunnett's analysis; for change in body weight: DIO mice
Experimental: as §1
Body weight was measured twice per week.

B1: GIPR Ab: GIPR antibody 2.63.1 having a light and heavy chain sequence of SEQ ID NOs: 105 and 106 (antibody)
heavy: MGWSYIILFLVATATDVHSQVQLQQPGAELVKPGASVKLSCRASGYTFTSNWMHWVKQRPRQGLEWIGEINPSNGRSNYNEKFKTKATLTVDKSSSTAYMQLSSLTSEDSAVYYCARFYYGTSWFAYWGQGTLVAVSAAKTTPPSVYPLAPGSAAQTNSMVTLGCLVKGYFPEPVTVTWNSGSLSSGVHTFPAVLQSDLYTLSSSVTVPSSTWPSETVTCNVAHPASSTKVDKKIVPRDCGCKPCICTVPEVSSVFIFPPKPKDVLTITLTPKVTCVVVDISKDDPEVQFSWFVDDVEVHTAQTQPREEQFASTFRSVSELPIMHQDWLNGKEFKCRVNSAAFPAPIEKTISKTKGRPKAPQVYTIPPPKEQMAKDKVSLTCMITDFFPEDITVEWQWNGQPAENYKNTQPIMDTDGSYFVYSKLNVQKSNWEAGNTFTCSVLHEGLHNHHTEKSLSHSPGK
light: MKLPVRLLVLMFWIPASSSDVVMTQTPLSLPVSLGDQASISCRSSQSLVHSNGDTYLHWYLQKPGQSPKLLIYKVSNRFSGVPDRFSGSGSGTDFTLKISRVEAADLGVYFCSQSTHVPPFTFGGGTKLEIKRADAAPTVSIFPPSSEQLTSGGASVVCFLNNFYPKDINVKWKIDGSERQNGVLNSWTDQDSKDSTYSMSSTLTLTKDEYERHNSYTCEATHKTSTSPIVKSFNRNEC
[1]; D2
  Significance of Food Intake Assay: ns
[1]; D8
  Significance of Food Intake Assay: ns
[1]; D9
  Significance of Food Intake Assay: ns
[1]; D10
  Significance of Food Intake Assay: ns
[1]; D15
  Significance of Food Intake Assay: ns
[1]; D16
  Significance of Food Intake Assay: ns
[1]; D17
  Significance of Food Intake Assay: ns
[1]; D22
  Significance of Food Intake Assay: * (p < 0.05)
[1]; D23
  Significance of Food Intake Assay: ns
[1]; D24
  Significance of Food Intake Assay: ns
[1]; D29
  Significance of Food Intake Assay: ns
[1]; D30
  Significance of Food Intake Assay: ns
[1]; D31
  Significance of Food Intake Assay: ns
[2]; D0
  Significance of Body Weight Change: ns
[2]; D3
  Significance of Body Weight Change: ns
[2]; D7
  Significance of Body Weight Change: ns
[2]; D10
  Significance of Body Weight Change: ns
[2]; D14
  Significance of Body Weight Change: ns
[2]; D17
  Significance of Body Weight Change: ns
[2]; D21
  Significance of Body Weight Change: ns
[2]; D31
  Significance of Body Weight Change: ns
[2]; D35
  Significance of Body Weight Change: ns
[2]; D-4
  Significance of Body Weight Change: ns
[2]; five weeks after treatment
  change in body weight: 2.24%
[2]; two weeks after treatment
  change in body weight: −0.91%

— patent US20220152154A1, “GROWTH DIFFERENTIATION FACTOR 15 COMBINATION THERAPY” (Amgen Inc., priority 2019, published 2022)
